Test results: the supplement of paper PMC9732359
± gives the uncertainty stated by the source.

Assay: protein stability index of a GFP-peptide fusion (yeast GPS) (PSI 1-4); higher = more stable; sorted into four equal gates, so the index is relative within each strain
Outline: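 Tiled 17-residue peptides from yeast proteins were fused downstream of GFP on a plasmid that also expresses Cherry, and the pooled library was carried in yeast. Mid-log cultures grown in leucine-free medium were sorted into four equal gates by GFP/Cherry fluorescence ratio. Plasmids from each gate were PCR-amplified and Illumina-sequenced, and reads were assigned to strains by barcodes. Each peptide's protein stability index is the sum, over gates, of the gate's read frequency multiplied by its gate number.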

Row | Sequence | protein stability index (doa10∆) | protein stability index (pdr5∆) | protein stability index (san1∆) | protein stability index (ubr1∆)
1 | GEIIDISAFTQFLRLIF [ARP9] | 2.45 ± 0.08 | 2.23 ± 0.075 | 2.59 ± 0.11 | 2.94 ± 0.065
2 | DVKSSDSLKLNSKPVEL [YJL041W/NSP1] | 3.27 ± 0.098 | 3.09 ± 0.12 | 3.1 ± 0.14 | 3.23 ± 0.12
3 | VIGLDSEHDKKRLSAAL [YML103C/NUP188] | 3.5 ± 0.23 | 3.69 ± 0.19 | 3.14 ± 0.13 | 3.67 ± 0.14
4 | DVNEKIRFRIEREVFVD [RPC25] | 1.81 ± 0.074 | 1.29 ± 0.066 | 1.56 ± 0.13 | 1.2 ± 0.044
5 | FKLQEEERERKDQYVPE [RPS17A] | 3.14 ± 0.14 | 3.38 ± 0.091 | 3.4 ± 0.061 | 3.24 ± 0.093
6 | LEHIDSKSEFAHRIMLT [FAS2] | 2.17 ± 0.063 | 2.19 ± 0.069 | 2.72 ± 0.075 | 2.25 ± 0.063
7 | KLLASTEENKANTNSVT [YIL149C/MLP2] | 3.32 ± 0.083 | 3.24 ± 0.066 | 3.25 ± 0.056 | 3.32 ± 0.036
8 | LRRTTQRVFDETEQEYS [YDL116W/NUP84] | 3.21 ± 0.064 | 3.03 ± 0.046 | 3.2 ± 0.061 | 3.19 ± 0.043
9 | GSYLCTSSTPSPIKNGS [YOR098C/NUP1] | 2.95 ± 0.054 | 2.94 ± 0.054 | 2.78 ± 0.053 | 2.97 ± 0.04
10 | HAADSQNNKPSFVFGQA [YLR335W/NUP2] | 2.91 ± 0.11 | 2.95 ± 0.092 | 2.58 ± 0.057 | 3.15 ± 0.093
11 | TYGISVVDVALKYPELS [NUT1] | 2.04 ± 0.057 | 2.42 ± 0.075 | 2.04 ± 0.078 | 2.6 ± 0.041
12 | QFSLPNGDNSTTTNTDQ [SNF12] | 2.47 ± 0.047 | 2.2 ± 0.055 | 2.318 ± 0.014 | 2.31 ± 0.05
13 | NGGITNTATNALRPSDI [YOR098C/NUP1] | 2.63 ± 0.13 | 2.69 ± 0.14 | 2.11 ± 0.12 | 2.84 ± 0.12
14 | AKMNAKTDFAKIINKPN [RPC82] | 1.8 ± 0.069 | 1.79 ± 0.092 | 1.58 ± 0.17 | 1.62 ± 0.069
15 | LEVGKNNFCALYNLSNP [RPN14] | 1.58 ± 0.092 | 1.2 ± 0.14 | 1.43 ± 0.15 | 1.13 ± 0.046
16 | GSAEFNVKYRAVVFKPF [RPB7] | 2.81 ± 0.14 | 1.85 ± 0.11 | 2.46 ± 0.1 | 2.85 ± 0.17
17 | LSRLQKSGRINGFHGRL [SMC4] | 3.26 ± 0.15 | 3.57 ± 0.15 | 3.29 ± 0.081 | 3.19 ± 0.064
18 | ITAVHVKIRATGGTRTK [RPS14A] | 1.58 ± 0.05 | 1.63 ± 0.041 | 1.82 ± 0.09 | 1.67 ± 0.042
19 | SYESLKKRKIHNGREGS [MCD1] | 1.7 ± 0.04 | 1.91 ± 0.041 | 1.69 ± 0.062 | 2 ± 0.032
20 | NFFQAPQDYVLERVKRI [YML031W/NDC1] | 2.81 ± 0.064 | 2.62 ± 0.045 | 2.9 ± 0.068 | 2.77 ± 0.036
21 | ALAGSEINWRHASFLCS [FAS1] | 1.77 ± 0.071 | 1.6 ± 0.057 | 1.43 ± 0.092 | 1.84 ± 0.049
22 | VLQKVIEWAEHHRDSNF [SKP1] | 3.08 ± 0.078 | 3.14 ± 0.063 | 3.04 ± 0.049 | 3.25 ± 0.062
23 | LQISDIPAAGNNRSVSM [SRB5] | 2.77 ± 0.075 | 2.35 ± 0.07 | 2.4 ± 0.083 | 2.8 ± 0.06
24 | SQTTTNDSKEESTTEAT [YLR335W/NUP2] | 3.02 ± 0.19 | 2.83 ± 0.21 | 2.97 ± 0.21 | 3.27 ± 0.079
25 | LRDRNFSATGNFGFGID [RPL11A] | 3.23 ± 0.069 | 3.28 ± 0.072 | 2.93 ± 0.1 | 3.25 ± 0.053
26 | KKLATRPKCGDCGSALQ [RPL34A] | 2.52 ± 0.12 | 2.88 ± 0.16 | 2.31 ± 0.16 | 2.89 ± 0.12
27 | AVGAHSDLLKVLKSKKL [RPL4A] | 3.13 ± 0.14 | 3.14 ± 0.13 | 2.61 ± 0.16 | 2.82 ± 0.062

Row | Sequence | protein stability index (doa10∆) | protein stability index (pdr5∆) | protein stability index (san1∆) | protein stability index (ubr1∆)
28 | HETTFMTAMRLMLKKLK [YML031W/NDC1] | 1.21 ± 0.097 | 2.56 ± 0.094 | 2.42 ± 0.1 | 2.5 ± 0.069
29 | HISFNFSMLQMAFEASA [BRR2] | 1.42 ± 0.075 | 1.45 ± 0.066 | 1.41 ± 0.23 | 1.24 ± 0.06
30 | GLTQLYKKSTENESTNY [MED7] | 3.08 ± 0.081 | 2.84 ± 0.081 | 2.56 ± 0.1 | 2.96 ± 0.05
31 | GISINNMMEHWDYLQLT [RPO31] | 2.84 ± 0.087 | 2.81 ± 0.073 | 2.8 ± 0.14 | 2.65 ± 0.065
32 | QDMEAAKEVYKIHQQLL [GAL11] | 3.41 ± 0.22 | 3.41 ± 0.13 | 3.5 ± 0.11 | 3.41 ± 0.12
33 | ANPVVATDPVAAKPDNL [SWP82] | 3.26 ± 0.087 | 3.15 ± 0.097 | 3.23 ± 0.085 | 3.1 ± 0.05
34 | CCYFIEWKSNHKKKRSN [SRB8] | 1.81 ± 0.048 | 2.08 ± 0.054 | 2.1 ± 0.073 | 1.92 ± 0.048
35 | PKIETNVYVGMTDMQIQ [ISW2] | 2.96 ± 0.091 | 2.99 ± 0.091 | 3.04 ± 0.069 | 3.29 ± 0.11
36 | IELLSLDDDSIVNHEQD [SRB4] | 2.9 ± 0.1 | 3.19 ± 0.089 | 3.4 ± 0.083 | 3.12 ± 0.088
37 | GSSDEDLKSLNVRDDMK [SSN2] | 3.29 ± 0.13 | 3.58 ± 0.11 | 3.38 ± 0.078 | 3.2 ± 0.11
38 | DRELSVRNACKRLIAHD [YCG1] | 2.59 ± 0.097 | 2.77 ± 0.27 | 2.49 ± 0.26 | 2.67 ± 0.18
39 | SSEALEAARICANKYMT [RPL10] | 1.35 ± 0.13 | 1.82 ± 0.16 | 1.36 ± 0.19 | 1.29 ± 0.11
40 | EKEEEAKEESDDDMGFG [RPP2B] | 3.05 ± 0.2 | 3.29 ± 0.14 | 2.84 ± 0.15 | 3.43 ± 0.07
41 | GDIKVLDSNFNLQREID [RPN14] | 2.96 ± 0.12 | 3.11 ± 0.091 | 2.93 ± 0.085 | 3.26 ± 0.082
42 | RREVQIQLQEFLLSAMT [NSL1] | 1.42 ± 0.052 | 1.68 ± 0.11 | 1.47 ± 0.12 | 1.68 ± 0.063
43 | KYHKEQFIKSNFEKILL [SRB8] | 2.21 ± 0.085 | 2.32 ± 0.047 | 1.95 ± 0.075 | 2.37 ± 0.057
44 | ETQVLVSTPEKWDITTR [BRR2] | 3.17 ± 0.092 | 3.26 ± 0.083 | 3.31 ± 0.053 | 3.21 ± 0.034
45 | KPAEKNNNETSKPAFSF [YJL041W/NSP1] | 1.65 ± 0.15 | 1.98 ± 0.06 | 2.24 ± 0.16 | 1.64 ± 0.11
46 | KLTGDDQKFGVPVRSFK [ASC1] | 2.36 ± 0.16 | 3.16 ± 0.12 | 2.77 ± 0.1 | 3 ± 0.1
47 | HPIMETIVNDSNYDWLF [RPN9] | 2.42 ± 0.058 | 2.34 ± 0.057 | 2.16 ± 0.085 | 2.66 ± 0.052
48 | GKDCKLQNLQRIIRKKI [RRI2] | 2.98 ± 0.092 | 3.51 ± 0.14 | 3.14 ± 0.096 | 3.05 ± 0.13
49 | HHYEECAERVKIQQQQP [QCR6] | 3.25 ± 0.12 | 3.04 ± 0.18 | 2.85 ± 0.11 | 3.13 ± 0.15
50 | TFVHVTDLSGKETIARV [RPS14A] | 2.89 ± 0.069 | 2.82 ± 0.073 | 2.84 ± 0.05 | 2.4 ± 0.055
51 | LQGIVIWDSQKFFIMIV [POP4] | 1.7 ± 0.059 | 1.91 ± 0.064 | 2.21 ± 0.076 | 2.3 ± 0.045
52 | KSGKTIVITSITGGIIE [RRP43] | 1.6 ± 0.072 | 1.84 ± 0.077 | 2.07 ± 0.1 | 1.78 ± 0.1
53 | AVHNGDRKHVAALRTVK [RPL9B] | 2.09 ± 0.064 | 2.23 ± 0.076 | 2.36 ± 0.061 | 2.71 ± 0.049
